Tests used:
[1] = molecular target: AML1/ETO chimeric fusion protein (UniProt Q01196); experiment: cell-based or functional assay
[2] = molecular target: human nuclear receptor co-repressor (HuN-CoR), 2,440 amino-acid polypeptide (human) (UniProt O75376); experiment: cell-based or functional assay
Sequence of UniProt O75376 (O75376 other isoform, or with tags, fused parts or gaps limits assumed): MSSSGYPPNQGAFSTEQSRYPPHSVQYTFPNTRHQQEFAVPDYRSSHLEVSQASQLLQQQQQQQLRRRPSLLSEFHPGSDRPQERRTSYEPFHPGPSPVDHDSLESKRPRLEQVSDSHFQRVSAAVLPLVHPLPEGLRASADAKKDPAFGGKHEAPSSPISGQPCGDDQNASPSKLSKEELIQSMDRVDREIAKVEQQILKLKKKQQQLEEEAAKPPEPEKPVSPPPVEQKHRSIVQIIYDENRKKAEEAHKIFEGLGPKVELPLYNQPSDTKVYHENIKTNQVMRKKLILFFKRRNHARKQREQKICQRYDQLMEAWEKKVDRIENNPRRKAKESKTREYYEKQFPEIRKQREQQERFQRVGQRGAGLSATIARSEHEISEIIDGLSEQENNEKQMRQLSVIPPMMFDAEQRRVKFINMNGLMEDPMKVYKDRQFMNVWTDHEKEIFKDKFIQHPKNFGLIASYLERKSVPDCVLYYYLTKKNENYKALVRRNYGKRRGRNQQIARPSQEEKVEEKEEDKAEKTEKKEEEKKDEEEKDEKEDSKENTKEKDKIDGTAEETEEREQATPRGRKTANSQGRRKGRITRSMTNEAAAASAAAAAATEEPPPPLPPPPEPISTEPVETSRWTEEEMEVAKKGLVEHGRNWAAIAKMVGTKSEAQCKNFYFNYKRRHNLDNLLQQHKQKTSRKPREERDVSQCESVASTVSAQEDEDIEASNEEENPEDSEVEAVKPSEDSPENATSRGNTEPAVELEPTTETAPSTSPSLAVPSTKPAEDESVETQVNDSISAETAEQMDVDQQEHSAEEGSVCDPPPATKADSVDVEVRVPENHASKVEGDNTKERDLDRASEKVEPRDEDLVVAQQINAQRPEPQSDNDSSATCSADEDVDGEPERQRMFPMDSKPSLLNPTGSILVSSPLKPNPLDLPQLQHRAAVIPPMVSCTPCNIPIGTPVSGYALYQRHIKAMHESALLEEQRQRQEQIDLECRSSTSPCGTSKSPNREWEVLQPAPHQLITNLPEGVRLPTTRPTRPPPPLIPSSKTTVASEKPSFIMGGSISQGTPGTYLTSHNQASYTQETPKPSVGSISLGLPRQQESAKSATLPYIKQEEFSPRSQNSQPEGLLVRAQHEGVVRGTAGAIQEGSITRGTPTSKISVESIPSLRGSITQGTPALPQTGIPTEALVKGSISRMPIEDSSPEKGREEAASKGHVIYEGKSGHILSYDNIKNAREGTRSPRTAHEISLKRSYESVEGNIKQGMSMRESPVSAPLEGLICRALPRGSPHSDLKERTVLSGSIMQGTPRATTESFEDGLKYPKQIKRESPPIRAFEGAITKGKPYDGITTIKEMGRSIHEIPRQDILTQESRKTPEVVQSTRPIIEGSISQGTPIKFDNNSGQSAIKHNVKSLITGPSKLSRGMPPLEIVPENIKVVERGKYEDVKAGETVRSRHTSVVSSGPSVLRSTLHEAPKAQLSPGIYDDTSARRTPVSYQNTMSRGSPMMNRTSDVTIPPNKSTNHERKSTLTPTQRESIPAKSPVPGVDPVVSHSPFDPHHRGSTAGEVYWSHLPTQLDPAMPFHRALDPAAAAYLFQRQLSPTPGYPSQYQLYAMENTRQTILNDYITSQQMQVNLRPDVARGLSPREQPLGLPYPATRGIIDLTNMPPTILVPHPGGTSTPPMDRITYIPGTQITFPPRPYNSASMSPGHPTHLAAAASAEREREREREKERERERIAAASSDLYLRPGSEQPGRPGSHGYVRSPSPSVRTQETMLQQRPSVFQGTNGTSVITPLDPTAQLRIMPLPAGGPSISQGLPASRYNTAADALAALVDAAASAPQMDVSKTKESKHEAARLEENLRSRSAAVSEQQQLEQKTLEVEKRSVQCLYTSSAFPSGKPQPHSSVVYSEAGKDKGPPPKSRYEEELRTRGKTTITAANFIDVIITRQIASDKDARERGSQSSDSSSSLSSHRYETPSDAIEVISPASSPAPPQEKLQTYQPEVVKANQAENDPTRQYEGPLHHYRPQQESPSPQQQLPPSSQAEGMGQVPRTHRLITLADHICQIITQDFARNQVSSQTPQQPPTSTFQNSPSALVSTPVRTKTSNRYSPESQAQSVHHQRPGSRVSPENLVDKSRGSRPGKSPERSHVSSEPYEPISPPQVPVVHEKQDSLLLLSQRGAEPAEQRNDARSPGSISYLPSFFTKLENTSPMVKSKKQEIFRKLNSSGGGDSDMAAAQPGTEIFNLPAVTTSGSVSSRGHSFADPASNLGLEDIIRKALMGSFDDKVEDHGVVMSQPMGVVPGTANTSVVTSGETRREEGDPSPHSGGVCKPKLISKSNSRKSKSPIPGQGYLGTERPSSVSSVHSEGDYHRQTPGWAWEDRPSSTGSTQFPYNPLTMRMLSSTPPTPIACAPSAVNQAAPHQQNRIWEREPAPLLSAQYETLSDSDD

Sequence of UniProt Q01196 (Q01196 other isoform, or with tags, fused parts or gaps mutant limits assumed): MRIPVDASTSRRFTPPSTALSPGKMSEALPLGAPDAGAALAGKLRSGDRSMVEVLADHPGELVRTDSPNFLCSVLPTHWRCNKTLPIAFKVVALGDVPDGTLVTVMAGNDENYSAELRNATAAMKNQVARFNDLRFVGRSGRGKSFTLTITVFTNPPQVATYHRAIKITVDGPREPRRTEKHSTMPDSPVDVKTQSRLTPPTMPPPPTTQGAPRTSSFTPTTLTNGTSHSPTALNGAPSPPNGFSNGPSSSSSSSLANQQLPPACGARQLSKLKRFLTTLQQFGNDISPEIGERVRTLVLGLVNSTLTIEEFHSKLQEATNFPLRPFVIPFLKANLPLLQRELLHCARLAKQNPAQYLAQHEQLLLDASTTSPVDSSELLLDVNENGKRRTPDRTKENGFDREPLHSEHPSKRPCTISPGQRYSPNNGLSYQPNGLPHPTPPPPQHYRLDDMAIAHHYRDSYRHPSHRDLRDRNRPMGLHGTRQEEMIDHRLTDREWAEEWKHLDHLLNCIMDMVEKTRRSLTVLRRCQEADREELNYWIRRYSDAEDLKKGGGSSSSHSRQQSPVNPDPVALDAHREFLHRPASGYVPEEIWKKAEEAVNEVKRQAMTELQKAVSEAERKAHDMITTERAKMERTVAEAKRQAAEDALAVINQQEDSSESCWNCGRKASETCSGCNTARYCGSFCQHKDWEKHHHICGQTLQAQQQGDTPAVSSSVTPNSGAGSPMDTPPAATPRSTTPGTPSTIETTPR

| transduced Kasumi-1 cells positive for CD13 expression (flow cytometry) [1] | transduced Kasumi-1 cells positive for annexin staining (flow cytometry) [1] | transduced Kasumi-1 cells positive for CD13 expression (flow cytometry) [2] | transduced Kasumi-1 cells positive for annexin staining (flow cytometry) [2] | Substance |
| --- | --- | --- | --- | --- |
| 87% | 97% | – | – | ETO-interacting domain of N-CoR (NCoREID) fused with enhanced green fluorescent protein |
| – | – | 89% | 97% | zinc-finger domains of ETO (ETOZn) fused with enhanced green fluorescent protein (from UniProt Q06455 510-556) |

Source: patent publication US6949624
